Test results as given in article PMC7430671.
Residue numbers refer to the chain shown, from its start.

How the values were obtained:
[1] = biological target: RapZ 1-279 T278G L279G (T25 fusion); assay: BACTH assay (self-interaction; β-galactosidase activity); details: bottom panel; same RapZ1-279 variant fused to T18 and to T25; mean ± SD, n ≥ 2; parent: est. 4100; read off a plot
[2] = biological target: T1, RapZCTDquad K270A;K281A;R282A;K283A (Escherichia coli) (UniProt P0A894); assay: EMSA; details: EMSA on non-denaturing PAA gels, phospho-imaging; buffer, pH and temperature not given here (as in Göpel 2016; Durica-Mitic and Görke 2019)
T1 sequence: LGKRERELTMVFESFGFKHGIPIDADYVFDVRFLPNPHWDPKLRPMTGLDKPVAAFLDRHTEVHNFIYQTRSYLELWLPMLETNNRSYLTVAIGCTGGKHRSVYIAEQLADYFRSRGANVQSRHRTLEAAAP

[3] = biological target: T2, RapZCTD (Escherichia coli) (UniProt P0A894); assay: EMSA; details: EMSA on non-denaturing PAA gels, phospho-imaging; buffer, pH and temperature not given here (as in Göpel 2016; Durica-Mitic and Görke 2019)
T2 sequence: T1 sequence with A118K, A129K, A130R, A131K

[4] = biological target: T3, RapZ1-279 (purified) del280-284 (Escherichia coli) (UniProt P0A894); assay: EMSA; details: EMSA on non-denaturing PAA gels, phospho-imaging; buffer, pH and temperature not given here (as in Göpel 2016; Durica-Mitic and Görke 2019)
T3 sequence: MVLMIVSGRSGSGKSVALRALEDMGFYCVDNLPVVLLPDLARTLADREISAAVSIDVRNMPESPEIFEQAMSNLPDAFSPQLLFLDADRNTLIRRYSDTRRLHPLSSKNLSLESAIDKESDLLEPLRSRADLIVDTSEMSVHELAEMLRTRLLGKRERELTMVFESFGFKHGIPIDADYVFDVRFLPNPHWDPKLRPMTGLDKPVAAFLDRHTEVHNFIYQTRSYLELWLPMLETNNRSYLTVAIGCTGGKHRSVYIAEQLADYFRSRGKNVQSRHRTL

[5] = biological target: T4, RapZquad (purified) K270A;K281A;R282A;K283A (Escherichia coli) (UniProt P0A894); assay: EMSA; details: EMSA on non-denaturing PAA gels, phospho-imaging; buffer, pH and temperature not given here (as in Göpel 2016; Durica-Mitic and Görke 2019)
T4 sequence: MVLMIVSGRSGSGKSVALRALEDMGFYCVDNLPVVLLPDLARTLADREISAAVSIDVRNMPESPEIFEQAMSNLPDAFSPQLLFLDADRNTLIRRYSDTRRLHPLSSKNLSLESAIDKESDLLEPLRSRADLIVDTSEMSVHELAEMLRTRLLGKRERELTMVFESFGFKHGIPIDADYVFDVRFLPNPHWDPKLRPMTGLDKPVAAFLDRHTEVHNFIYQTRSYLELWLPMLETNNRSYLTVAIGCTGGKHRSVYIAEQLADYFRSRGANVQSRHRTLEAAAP

[6] = biological target: T5, RapZCTD lacking the 5 C-terminal residues del280-284 (Escherichia coli) (UniProt P0A894); assay: EMSA; details: EMSA on non-denaturing PAA gels, phospho-imaging; buffer, pH and temperature not given here (as in Göpel 2016; Durica-Mitic and Görke 2019)
T5 sequence: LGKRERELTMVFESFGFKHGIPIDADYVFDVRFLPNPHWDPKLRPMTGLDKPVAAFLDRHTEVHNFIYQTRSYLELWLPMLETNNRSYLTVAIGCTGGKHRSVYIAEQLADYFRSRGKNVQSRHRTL

RapZ_(1–279), BACTH fusion, sequence (P0A894 whole entry T278G/L279G, looked up, the tested form may be a part): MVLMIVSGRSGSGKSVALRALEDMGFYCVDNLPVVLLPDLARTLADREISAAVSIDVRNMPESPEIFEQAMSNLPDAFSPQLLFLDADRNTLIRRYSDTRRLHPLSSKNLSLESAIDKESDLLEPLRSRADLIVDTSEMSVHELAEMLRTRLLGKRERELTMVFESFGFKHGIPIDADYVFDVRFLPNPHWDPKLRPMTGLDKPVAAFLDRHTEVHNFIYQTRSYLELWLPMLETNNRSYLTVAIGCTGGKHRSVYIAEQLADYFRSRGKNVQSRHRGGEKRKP

Substance “RapZ_(1–279), BACTH fusion (from UniProt P0A894) T278G; L279G” has a response [1] of 3600 Miller units.

For “GGGAGAGUAGAUGCUCAUUCCAUCUCUUAUGUUCGCCUUAGUGCCUCAUAAACUCCGGAAUGACGCAGAGCCGUUUACGGUGCUUAUCGUCCACUGACAGAUGUCGCUUAUGCCUCAUCAGACACCAUGGACACAACGUUGAGUGAAGCACCCACUUGUUGUCAUACAGACCUGUUUUAACGCCUGCUCCGUAAUAAGAGCAGGCGUUUUUUU [GlmZ sRNA (in vitro transcript)]”, the binding [2] was “no binding”, the binding [3] was “binds” and the binding [4] was “binds more weakly”. The binding [5] was “no binding” and the binding [6] was “no binding”.
